Assay results published in PMC9832388.
Where two headings read alike, the source gives them in different places.

Legend:
C3b [1] = target: C3b (UniProt P01024); test: SPR; BIAcore S200; C3b (800-1000 RU) on a CM5 chip; FH1-4 variants flowed at 20 to 0.3125 µM, 90 s at 30 µL/min; steady state fit, estimated KD; done once in HBST and once in PBST (PBST shown)
[2] = target: C3b:FH complex (C3b with WT FH CCP 1-4) (UniProt P01024); test: SPR; TMC building, FI variants: FI variants on the inactive (S525A) backbone (125-15.625 nM; 62.5 nM shown) co-injected with FH1-4 at constant concentration (125 nM in the methods, 118 nM in the legend) onto thioester-coupled C3b (1000 RU); PBST + Mg2+
C3b:FH complex (C3b with WT FH CCP 1-4), sequence (P01024 23-667, chain 1 of 3): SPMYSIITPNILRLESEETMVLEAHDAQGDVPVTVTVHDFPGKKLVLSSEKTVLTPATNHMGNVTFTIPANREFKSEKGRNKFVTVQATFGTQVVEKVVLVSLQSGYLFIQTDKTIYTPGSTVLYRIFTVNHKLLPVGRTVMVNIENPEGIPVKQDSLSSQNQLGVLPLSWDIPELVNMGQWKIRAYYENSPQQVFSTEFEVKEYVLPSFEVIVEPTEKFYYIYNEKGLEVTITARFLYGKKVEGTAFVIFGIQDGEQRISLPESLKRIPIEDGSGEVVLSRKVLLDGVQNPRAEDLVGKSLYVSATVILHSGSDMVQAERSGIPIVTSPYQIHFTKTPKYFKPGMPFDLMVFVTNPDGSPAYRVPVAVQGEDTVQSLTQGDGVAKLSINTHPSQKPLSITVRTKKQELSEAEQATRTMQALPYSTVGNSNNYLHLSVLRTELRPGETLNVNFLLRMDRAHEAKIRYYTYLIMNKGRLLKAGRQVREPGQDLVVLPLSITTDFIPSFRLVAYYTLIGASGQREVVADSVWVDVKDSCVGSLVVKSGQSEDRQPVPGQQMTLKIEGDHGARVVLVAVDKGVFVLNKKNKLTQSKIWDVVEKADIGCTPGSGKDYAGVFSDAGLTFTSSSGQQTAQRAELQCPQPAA
C3b:FH complex (C3b with WT FH CCP 1-4), sequence (P01024 749-1663, chain 2 of 3): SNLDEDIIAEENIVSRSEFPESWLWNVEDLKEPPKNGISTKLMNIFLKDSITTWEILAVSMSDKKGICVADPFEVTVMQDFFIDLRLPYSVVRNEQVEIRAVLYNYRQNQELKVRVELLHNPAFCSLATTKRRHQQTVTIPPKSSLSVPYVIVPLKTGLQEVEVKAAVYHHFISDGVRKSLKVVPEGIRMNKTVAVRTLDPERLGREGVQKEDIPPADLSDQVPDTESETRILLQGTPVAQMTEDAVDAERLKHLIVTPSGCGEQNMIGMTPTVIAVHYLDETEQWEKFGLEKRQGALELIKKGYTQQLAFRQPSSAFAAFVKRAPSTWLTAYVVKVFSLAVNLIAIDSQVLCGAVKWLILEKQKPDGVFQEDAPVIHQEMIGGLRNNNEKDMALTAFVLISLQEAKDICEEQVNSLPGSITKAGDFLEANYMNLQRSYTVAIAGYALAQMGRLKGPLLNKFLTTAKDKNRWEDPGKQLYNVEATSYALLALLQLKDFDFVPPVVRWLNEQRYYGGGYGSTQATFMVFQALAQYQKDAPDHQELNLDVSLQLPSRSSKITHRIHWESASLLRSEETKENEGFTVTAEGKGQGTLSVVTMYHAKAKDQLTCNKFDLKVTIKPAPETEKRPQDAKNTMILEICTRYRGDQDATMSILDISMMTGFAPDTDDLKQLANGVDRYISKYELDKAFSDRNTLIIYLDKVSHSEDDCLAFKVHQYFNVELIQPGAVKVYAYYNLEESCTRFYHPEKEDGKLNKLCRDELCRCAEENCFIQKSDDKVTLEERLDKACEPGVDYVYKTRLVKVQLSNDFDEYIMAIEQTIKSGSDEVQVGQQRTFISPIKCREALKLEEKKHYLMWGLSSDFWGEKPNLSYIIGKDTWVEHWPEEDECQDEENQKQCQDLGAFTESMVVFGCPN
C3b:FH complex (C3b with WT FH CCP 1-4), sequence (P08603 19-1231, chain 3 of 3, further chain): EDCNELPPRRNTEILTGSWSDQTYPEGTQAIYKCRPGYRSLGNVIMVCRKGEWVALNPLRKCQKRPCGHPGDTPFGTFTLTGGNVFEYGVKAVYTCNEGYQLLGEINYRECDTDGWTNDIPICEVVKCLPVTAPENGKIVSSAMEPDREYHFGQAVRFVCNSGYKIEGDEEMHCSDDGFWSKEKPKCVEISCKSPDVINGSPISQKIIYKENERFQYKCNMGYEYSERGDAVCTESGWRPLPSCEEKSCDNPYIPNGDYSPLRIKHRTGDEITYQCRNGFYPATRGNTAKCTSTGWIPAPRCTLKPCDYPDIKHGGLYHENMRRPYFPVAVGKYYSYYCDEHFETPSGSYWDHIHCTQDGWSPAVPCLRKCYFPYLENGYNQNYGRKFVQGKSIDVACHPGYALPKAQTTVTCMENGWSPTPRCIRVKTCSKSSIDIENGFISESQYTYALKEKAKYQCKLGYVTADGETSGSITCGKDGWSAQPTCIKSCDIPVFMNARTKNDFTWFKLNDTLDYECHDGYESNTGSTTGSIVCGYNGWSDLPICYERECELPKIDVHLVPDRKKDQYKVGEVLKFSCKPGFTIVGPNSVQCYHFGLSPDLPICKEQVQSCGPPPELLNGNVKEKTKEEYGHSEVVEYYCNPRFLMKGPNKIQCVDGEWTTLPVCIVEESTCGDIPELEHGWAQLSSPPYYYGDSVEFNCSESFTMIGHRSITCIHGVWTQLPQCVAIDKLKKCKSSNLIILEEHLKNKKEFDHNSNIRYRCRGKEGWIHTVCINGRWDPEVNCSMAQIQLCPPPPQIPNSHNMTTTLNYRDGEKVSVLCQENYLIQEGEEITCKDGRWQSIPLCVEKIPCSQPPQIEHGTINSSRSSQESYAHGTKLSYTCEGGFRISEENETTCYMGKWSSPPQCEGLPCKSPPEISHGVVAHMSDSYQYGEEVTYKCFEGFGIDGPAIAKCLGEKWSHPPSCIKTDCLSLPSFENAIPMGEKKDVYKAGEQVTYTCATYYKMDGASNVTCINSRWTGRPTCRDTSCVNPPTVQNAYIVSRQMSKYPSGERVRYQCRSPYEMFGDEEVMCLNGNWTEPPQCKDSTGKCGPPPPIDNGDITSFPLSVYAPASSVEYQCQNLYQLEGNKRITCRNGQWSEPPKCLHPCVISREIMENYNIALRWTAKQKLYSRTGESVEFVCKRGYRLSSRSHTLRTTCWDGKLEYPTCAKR

[3] = target: C3b:FH complex (C3b with WT FH CCP 1-4) (UniProt P01024)
C3b [4] = target: C3b (UniProt P01024); test: SPR; BIAcore S200; C3b (800-1000 RU) on a CM5 chip; FH1-4 variants flowed at 20 to 0.3125 µM, 90 s at 30 µL/min; steady state fit, estimated KD; done once in HBST and once in PBST (PBST shown); remark: listed apart in the source
C3b [5] = target: C3b (UniProt P01024)
[6] = target: C3b:FH complex (C3b with WT FH CCP 1-4) (UniProt P01024); remark: listed apart in the source
[7] = target: C3b:FH complex (C3b with WT FH CCP 1-4) (UniProt P01024); test: SPR; TMC building, FH variants: FH1-4 (118-14.75 nM) co-injected with 118 nM inactive (S525A) FI onto C3b (1000 RU, thiol/thioester coupled) CM5 chip; PBST + 1 mM MgCl2, 25°C, 2 min at 30 µl/min
[8] = target: C3b with FH CCP 1-4 R232Q (UniProt P01024); test: as above
C3b with FH CCP 1-4 R232Q, sequence (P01024 23-667, chain 1 of 3): as the sequence (P01024 23-667, chain 1 of 3) above
C3b with FH CCP 1-4 R232Q, sequence (P01024 749-1663, chain 2 of 3): as the sequence (P01024 749-1663, chain 2 of 3) above
C3b with FH CCP 1-4 R232Q, sequence (P08603 19-1231 R232Q, chain 3 of 3, further chain): as the sequence (P08603 19-1231, chain 3 of 3, further chain) above, with R214Q counted along it

C3b with FH CCP 1-4 T91S = C3b with FH CCP 1-4 T91S (UniProt P01024); test: as above
C3b with FH CCP 1-4 T91S, sequence (P01024 23-667, chain 1 of 3): as the sequence (P01024 23-667, chain 1 of 3) above
C3b with FH CCP 1-4 T91S, sequence (P01024 749-1663, chain 2 of 3): as the sequence (P01024 749-1663, chain 2 of 3) above
C3b with FH CCP 1-4 T91S, sequence (P08603 19-1231 T91S, chain 3 of 3, further chain): as the sequence (P08603 19-1231, chain 3 of 3, further chain) above, with T73S counted along it

C3b with FH CCP 1-4 P26S = C3b with FH CCP 1-4 P26S (UniProt P01024); test: as above
C3b with FH CCP 1-4 P26S, sequence (P01024 23-667, chain 1 of 3): as the sequence (P01024 23-667, chain 1 of 3) above
C3b with FH CCP 1-4 P26S, sequence (P01024 749-1663, chain 2 of 3): as the sequence (P01024 749-1663, chain 2 of 3) above
C3b with FH CCP 1-4 P26S, sequence (P08603 19-1231 P26S, chain 3 of 3, further chain): as the sequence (P08603 19-1231, chain 3 of 3, further chain) above, with P8S counted along it

C3b with FH CCP 1-4 R83S = C3b with FH CCP 1-4 R83S (UniProt P01024); test: as above
C3b with FH CCP 1-4 R83S, sequence (P01024 23-667, chain 1 of 3): as the sequence (P01024 23-667, chain 1 of 3) above
C3b with FH CCP 1-4 R83S, sequence (P01024 749-1663, chain 2 of 3): as the sequence (P01024 749-1663, chain 2 of 3) above
C3b with FH CCP 1-4 R83S, sequence (P08603 19-1231 R83S, chain 3 of 3, further chain): as the sequence (P08603 19-1231, chain 3 of 3, further chain) above, with R65S counted along it

[9] = target: C3b with FH CCP 1-4 R166W (UniProt P01024); test: as above
C3b with FH CCP 1-4 R166W, sequence (P01024 23-667, chain 1 of 3): as the sequence (P01024 23-667, chain 1 of 3) above
C3b with FH CCP 1-4 R166W, sequence (P01024 749-1663, chain 2 of 3): as the sequence (P01024 749-1663, chain 2 of 3) above
C3b with FH CCP 1-4 R166W, sequence (P08603 19-1231 R166W, chain 3 of 3, further chain): as the sequence (P08603 19-1231, chain 3 of 3, further chain) above, with R148W counted along it

C3b, sequence (P01024 23-667, chain 1 of 2): as the sequence (P01024 23-667, chain 1 of 3) above
C3b, sequence (P01024 749-1663, chain 2 of 2): as the sequence (P01024 749-1663, chain 2 of 3) above

Substance: FH CCP 1-4 T91S (from UniProt P08603 19-1231) (domain or fragment)
- Kd (C3b [1]): 9.4 µM

Substance: FI K441R/S525A (from UniProt P05156 19-335; P05156 340-583) (enzyme)
- RU of the TMC (62.5 nM FI variant with FH1-4) [2]: 91.2 RU
- percent of the response of inactive WT FI [2]: 94%

Substance: FH CCP 1-4 WT (from UniProt P08603 19-1231) (domain or fragment)
- Kd (C3b [1]): 10 µM

Substance: FI P553S/S525A (from UniProt P05156 19-335; P05156 340-583) (enzyme)
- RU of the TMC (62.5 nM FI variant with FH1-4) [2]: 62.9 RU
- percent of the response of inactive WT FI [2]: 65%

Substance: H380R FI (from UniProt P05156 19-335; P05156 340-583) (enzyme)
- inhibition of the activity of WT FI in a fluid phase CA assay with increasing H380R FI (~20% at equimolar, 35% at 2-fold molar) [3]: 35%

Substance: FH CCP 1-4 R166W (from UniProt P08603 19-1231) (domain or fragment)
- Kd (C3b [4]): 16 to 20 µM
- Kd (C3b [1]): 16.7 µM

Substance: FI R406H/S525A (from UniProt P05156 19-335; P05156 340-583) (enzyme)
- RU of the TMC (62.5 nM FI variant with FH1-4) [2]: 74.6 RU
- percent of the response of inactive WT FI [2]: 77%

Substance: FH CCP 1-4 R232Q (from UniProt P08603 19-1231) (domain or fragment)
- fluid phase cofactor activity with FI and C3b: reduction in C3b α’ chain degradation (% reduced compared to WT) (C3b [5]): 41

Substance: FH CCP 1-4 P26S (from UniProt P08603 19-1231) (domain or fragment)
- Kd (C3b [1]): 11.5 µM

Substance: inactive FI (S525A FI) (from UniProt P05156 19-335; P05156 340-583) (enzyme)
- inhibition of C3b cleavage by WT FI in a fluid phase CA assay with increasing S525A FI (15% at equimolar, 20% at 2-fold molar) [6]: 20%
- RU of the TMC (118 nM FH1-4 with 118 nM inactive FI) [7]: 60 RU
- peak RU of the TMC (59 nM FH1-4 with 118 nM S525A FI) [7]: 40 RU
- peak RU of the TMC (59 nM FH1-4 with 118 nM S525A FI) [8]: 6 RU
- peak RU of the TMC (59 nM FH1-4 with 118 nM S525A FI) (C3b with FH CCP 1-4 T91S): 30 RU
- peak RU of the TMC (59 nM FH1-4 with 118 nM S525A FI) (C3b with FH CCP 1-4 P26S): 29 RU
- peak RU of the TMC (59 nM FH1-4 with 118 nM S525A FI) (C3b with FH CCP 1-4 R83S): 5 RU
- peak RU of the TMC (59 nM FH1-4 with 118 nM S525A FI) [9]: 7 RU
